Values of other authors in PMC4131687.

Legend:
[1] = target: NaV1.4 (Rattus norvegicus) (UniProt P15390)
[2] = target: NaV1.2 (Rattus norvegicus) (UniProt P04775)
Chain of NaV1.2 (Rattus norvegicus) (P04775 whole entry): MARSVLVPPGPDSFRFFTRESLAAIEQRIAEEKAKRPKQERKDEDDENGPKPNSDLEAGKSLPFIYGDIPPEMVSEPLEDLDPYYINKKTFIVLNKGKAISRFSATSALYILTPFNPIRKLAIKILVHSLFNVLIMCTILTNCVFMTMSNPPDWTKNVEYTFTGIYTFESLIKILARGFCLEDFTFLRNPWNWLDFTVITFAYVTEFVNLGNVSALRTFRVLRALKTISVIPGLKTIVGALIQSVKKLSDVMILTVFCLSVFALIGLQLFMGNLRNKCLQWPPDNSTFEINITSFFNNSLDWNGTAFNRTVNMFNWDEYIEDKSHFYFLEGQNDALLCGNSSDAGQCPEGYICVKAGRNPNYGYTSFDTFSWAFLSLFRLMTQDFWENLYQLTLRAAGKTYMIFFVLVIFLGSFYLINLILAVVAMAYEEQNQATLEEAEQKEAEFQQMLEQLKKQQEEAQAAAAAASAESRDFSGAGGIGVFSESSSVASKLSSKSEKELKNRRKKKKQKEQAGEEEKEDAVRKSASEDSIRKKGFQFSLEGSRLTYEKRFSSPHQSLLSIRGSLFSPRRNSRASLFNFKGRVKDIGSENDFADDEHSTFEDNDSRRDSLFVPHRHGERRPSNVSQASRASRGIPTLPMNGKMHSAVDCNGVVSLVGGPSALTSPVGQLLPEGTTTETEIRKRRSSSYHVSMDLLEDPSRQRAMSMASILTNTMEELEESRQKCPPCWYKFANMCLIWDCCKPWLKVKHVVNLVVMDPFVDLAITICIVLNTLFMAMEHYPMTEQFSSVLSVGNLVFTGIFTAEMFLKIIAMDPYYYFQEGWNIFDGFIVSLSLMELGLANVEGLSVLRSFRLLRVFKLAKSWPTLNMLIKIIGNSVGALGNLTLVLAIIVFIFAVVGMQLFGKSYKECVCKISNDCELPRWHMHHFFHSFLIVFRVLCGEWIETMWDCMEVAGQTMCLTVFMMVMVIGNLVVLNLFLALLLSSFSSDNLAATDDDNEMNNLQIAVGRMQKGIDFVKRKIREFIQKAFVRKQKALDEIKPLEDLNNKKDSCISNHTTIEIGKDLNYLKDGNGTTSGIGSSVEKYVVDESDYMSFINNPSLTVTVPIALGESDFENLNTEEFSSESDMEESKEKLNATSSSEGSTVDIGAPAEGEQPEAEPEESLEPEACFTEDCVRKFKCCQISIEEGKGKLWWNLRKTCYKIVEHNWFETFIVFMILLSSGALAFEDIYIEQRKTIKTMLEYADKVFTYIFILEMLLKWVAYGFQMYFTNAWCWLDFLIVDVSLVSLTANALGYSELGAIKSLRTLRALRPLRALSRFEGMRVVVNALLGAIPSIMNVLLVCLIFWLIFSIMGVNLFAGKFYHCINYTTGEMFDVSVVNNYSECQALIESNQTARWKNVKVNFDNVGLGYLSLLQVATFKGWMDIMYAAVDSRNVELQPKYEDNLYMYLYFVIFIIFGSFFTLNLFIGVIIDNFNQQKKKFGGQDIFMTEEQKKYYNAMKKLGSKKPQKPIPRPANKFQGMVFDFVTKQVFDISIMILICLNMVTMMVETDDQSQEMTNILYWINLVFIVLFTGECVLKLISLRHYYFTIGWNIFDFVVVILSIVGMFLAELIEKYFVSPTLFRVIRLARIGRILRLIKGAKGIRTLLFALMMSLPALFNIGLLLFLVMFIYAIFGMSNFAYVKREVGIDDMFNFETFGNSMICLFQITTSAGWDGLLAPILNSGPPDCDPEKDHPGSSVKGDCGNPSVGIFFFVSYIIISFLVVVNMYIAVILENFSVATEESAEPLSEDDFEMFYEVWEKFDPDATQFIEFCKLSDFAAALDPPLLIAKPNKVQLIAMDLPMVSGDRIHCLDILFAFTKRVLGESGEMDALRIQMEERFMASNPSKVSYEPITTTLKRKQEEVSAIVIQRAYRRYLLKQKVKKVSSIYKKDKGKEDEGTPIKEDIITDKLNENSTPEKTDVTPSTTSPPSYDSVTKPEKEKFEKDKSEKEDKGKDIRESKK

Chain of NaV1.4 (Rattus norvegicus) (P15390 whole entry): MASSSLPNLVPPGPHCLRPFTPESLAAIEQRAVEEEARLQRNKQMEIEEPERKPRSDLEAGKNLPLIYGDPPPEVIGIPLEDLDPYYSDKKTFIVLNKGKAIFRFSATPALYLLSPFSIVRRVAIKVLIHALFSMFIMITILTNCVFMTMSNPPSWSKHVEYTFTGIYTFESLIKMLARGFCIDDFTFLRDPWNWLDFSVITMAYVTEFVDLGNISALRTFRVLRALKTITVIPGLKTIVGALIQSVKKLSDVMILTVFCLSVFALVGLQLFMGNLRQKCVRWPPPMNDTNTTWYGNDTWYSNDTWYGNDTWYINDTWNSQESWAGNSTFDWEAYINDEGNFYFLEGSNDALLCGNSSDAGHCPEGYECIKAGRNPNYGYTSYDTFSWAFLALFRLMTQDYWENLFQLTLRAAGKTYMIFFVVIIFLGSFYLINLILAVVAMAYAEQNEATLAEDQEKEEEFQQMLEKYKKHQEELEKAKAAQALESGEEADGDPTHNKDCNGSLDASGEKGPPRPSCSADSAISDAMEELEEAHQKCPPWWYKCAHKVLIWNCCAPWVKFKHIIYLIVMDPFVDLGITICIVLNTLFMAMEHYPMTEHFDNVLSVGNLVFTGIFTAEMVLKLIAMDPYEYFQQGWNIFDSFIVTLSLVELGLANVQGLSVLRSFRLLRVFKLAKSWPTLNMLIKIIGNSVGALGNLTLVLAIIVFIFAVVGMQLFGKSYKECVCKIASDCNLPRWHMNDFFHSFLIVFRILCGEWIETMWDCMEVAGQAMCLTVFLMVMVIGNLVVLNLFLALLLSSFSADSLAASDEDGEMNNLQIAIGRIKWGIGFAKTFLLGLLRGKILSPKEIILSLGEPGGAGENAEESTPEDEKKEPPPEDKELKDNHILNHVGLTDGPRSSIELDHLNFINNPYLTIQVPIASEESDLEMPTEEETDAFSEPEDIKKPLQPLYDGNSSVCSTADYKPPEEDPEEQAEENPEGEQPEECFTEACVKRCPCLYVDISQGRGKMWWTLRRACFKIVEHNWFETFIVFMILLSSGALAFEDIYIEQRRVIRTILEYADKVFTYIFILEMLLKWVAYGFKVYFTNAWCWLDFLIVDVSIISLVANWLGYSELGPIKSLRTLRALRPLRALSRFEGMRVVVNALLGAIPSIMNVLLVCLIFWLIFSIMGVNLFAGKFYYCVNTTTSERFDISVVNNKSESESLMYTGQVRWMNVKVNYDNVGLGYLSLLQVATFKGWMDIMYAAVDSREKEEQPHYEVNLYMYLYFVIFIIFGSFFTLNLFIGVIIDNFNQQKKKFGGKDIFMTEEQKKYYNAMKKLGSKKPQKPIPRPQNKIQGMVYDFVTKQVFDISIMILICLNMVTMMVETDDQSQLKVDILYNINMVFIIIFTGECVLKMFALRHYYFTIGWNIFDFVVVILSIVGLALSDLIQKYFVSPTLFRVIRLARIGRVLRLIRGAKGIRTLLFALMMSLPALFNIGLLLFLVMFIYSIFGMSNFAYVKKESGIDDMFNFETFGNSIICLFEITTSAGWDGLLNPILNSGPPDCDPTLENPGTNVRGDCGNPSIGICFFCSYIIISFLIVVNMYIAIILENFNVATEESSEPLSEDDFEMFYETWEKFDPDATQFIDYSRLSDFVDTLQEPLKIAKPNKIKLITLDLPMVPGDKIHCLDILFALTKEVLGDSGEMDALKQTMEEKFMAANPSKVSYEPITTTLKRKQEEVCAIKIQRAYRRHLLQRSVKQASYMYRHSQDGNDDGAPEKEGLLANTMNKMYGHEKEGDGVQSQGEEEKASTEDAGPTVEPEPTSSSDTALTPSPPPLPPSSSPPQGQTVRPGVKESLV

mu-conotoxin KIIIA (from UniProt P0C195)
Kd [1]: 50 nM

μ-conotoxin KIIIA-P1 (from UniProt P0C195)
Kd [2]: 5 nM
